Results on eleven molecules are retold here after patent publication US20150322129A1 (Sanofi, published 2015).

Holding throughout (experiment): cell-based or functional assay
One assay concerns the target human GLP-1 receptor (human, UniProt P43220 24-463).
In the next assay the target is T1, human GIP receptor (human, UniProt P48546 22-466).
T1 sequence (looked up): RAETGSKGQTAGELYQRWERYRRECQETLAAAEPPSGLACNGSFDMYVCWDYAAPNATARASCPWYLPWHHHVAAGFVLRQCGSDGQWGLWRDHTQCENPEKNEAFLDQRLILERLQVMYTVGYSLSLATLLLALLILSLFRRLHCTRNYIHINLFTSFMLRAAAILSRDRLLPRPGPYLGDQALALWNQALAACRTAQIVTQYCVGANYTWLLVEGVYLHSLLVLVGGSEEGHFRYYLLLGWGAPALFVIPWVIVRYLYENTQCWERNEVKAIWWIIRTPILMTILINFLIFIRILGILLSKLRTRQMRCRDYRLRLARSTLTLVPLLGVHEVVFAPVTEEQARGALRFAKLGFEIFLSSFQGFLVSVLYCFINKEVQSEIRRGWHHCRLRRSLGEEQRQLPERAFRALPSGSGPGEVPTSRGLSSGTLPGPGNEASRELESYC

Another assay has as its target human glucagon receptor (human, UniProt P47871 26-477).

Numbered stars: 1 amine (or outer) side, 2 acyl side, 3 side chain; on linkers, the order of the positions; unused ones are H or OH. Square brackets hold non-standard residues; d marks the D form. Side chains are listed from the residue outwards. Ends that are not written are not given here. * marks the point of attachment. γGlu = O=C(O)[C@H](CCC(=O)[*:2])N[*:1]; Stearoyl = CCCCCCCCCCCCCCCCCC(=O)*; Palmitoyl = CCCCCCCCCCCCCCCC(=O)*; AEEA = NCCOCCOCC(=O)O; Aib = CC(C)(N)C(=O)O

Sequence of human glucagon receptor (P47871 26-477): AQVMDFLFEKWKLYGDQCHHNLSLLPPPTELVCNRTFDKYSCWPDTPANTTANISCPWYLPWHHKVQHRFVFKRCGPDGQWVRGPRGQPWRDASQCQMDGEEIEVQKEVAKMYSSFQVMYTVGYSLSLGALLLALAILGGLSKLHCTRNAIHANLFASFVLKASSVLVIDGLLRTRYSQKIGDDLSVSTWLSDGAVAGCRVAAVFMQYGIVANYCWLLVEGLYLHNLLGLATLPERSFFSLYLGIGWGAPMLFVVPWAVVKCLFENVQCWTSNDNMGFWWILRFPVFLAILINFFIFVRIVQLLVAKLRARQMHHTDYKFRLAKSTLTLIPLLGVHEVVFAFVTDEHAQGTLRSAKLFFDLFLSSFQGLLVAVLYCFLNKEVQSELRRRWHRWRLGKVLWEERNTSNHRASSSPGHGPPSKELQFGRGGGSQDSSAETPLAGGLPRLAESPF

B1: SEQ ID NO: 19 (peptide)
peptide: H[dS]QGTFTSDLSKQK([γGlu-Stearoyl])DEEAVRLFIEWLKAGGPSSGAPPPS-NH2
modifications: N-terminus assumed
SMILES: CCCCCCCCCCCCCCCCCC(=O)N[C@@H](CCC(=O)NCCCC[C@H](NC(=O)[C@H](CCC(N)=O)NC(=O)[C@H](CCCCN)NC(=O)[C@H](CO)NC(=O)[C@H](CC(C)C)NC(=O)[C@H](CC(=O)O)NC(=O)[C@H](CO)NC(=O)[C@@H](NC(=O)[C@H](Cc1ccccc1)NC(=O)[C@@H](NC(=O)CNC(=O)[C@H](CCC(N)=O)NC(=O)[C@@H](CO)NC(=O)[C@@H](N)Cc1c[nH]cn1)[C@@H](C)O)[C@@H](C)O)C(=O)N[C@@H](CC(=O)O)C(=O)N[C@@H](CCC(=O)O)C(=O)N[C@@H](CCC(=O)O)C(=O)N[C@@H](C)C(=O)N[C@H](C(=O)N[C@@H](CCCNC(=N)N)C(=O)N[C@@H](CC(C)C)C(=O)N[C@@H](Cc1ccccc1)C(=O)N[C@H](C(=O)N[C@@H](CCC(=O)O)C(=O)N[C@@H](Cc1c[nH]c2ccccc12)C(=O)N[C@@H](CC(C)C)C(=O)N[C@@H](CCCCN)C(=O)N[C@@H](C)C(=O)NCC(=O)NCC(=O)N1CCC[C@H]1C(=O)N[C@@H](CO)C(=O)N[C@@H](CO)C(=O)NCC(=O)N[C@@H](C)C(=O)N1CCC[C@H]1C(=O)N1CCC[C@H]1C(=O)N1CCC[C@H]1C(=O)N[C@@H](CO)C(N)=O)[C@@H](C)CC)C(C)C)C(=O)O
Turning to B1, the “EC50 hGLP-1R (cAMP formation)” value with human GLP-1 receptor came out at 0.0035 nM. For the same molecule, the “EC50 hGIP-R (cAMP formation)” value with human GIP receptor was found to be 0.4 nM. In addition, in the assay with human glucagon receptor, the “EC50 hGlucagon-R (cAMP formation)” value came out at 0.129 nM.

B2: SEQ ID NO: 10 (peptide)
peptide: HSHGTFTSDLSKQK([γGlu-Stearoyl])EEEAVRLFIEWLKAGGPSSGAPPPS-NH2
For B2, the “EC50 hGLP-1R (cAMP formation)” value with human GLP-1 receptor was found to be 0.0034 nM. Moreover, the “EC50 hGIP-R (cAMP formation)” value with human GIP receptor is 0.0711 nM. Also, the “EC50 hGlucagon-R (cAMP formation)” value with human glucagon receptor stood at 0.0069 nM.

B3: SEQ ID NO: 27 (peptide)
peptide: H-H[Aib]HGTFTSDLSKQK([AEEA-AEEA-γGlu-Palmitoyl])EEEAVRLFIEWLKAGGPSSGAPPPS-NH2
For the molecule B3, the “EC50 hGIP-R (cAMP formation)” value with human GIP receptor was found to be 0.0095 nM. The “EC50 hGlucagon-R (cAMP formation)” value in the assay with human glucagon receptor worked out at 0.0234 nM.

B4: SEQ ID NO: 15 (peptide)
peptide: H[dS]HGTFTSDLSKQK([γGlu-Stearoyl])DEEAVRLFIEWLKAGGPSSGAPPPS-NH2
modifications: N-terminus assumed
SMILES: CCCCCCCCCCCCCCCCCC(=O)N[C@@H](CCC(=O)NCCCC[C@H](NC(=O)[C@H](CCC(N)=O)NC(=O)[C@H](CCCCN)NC(=O)[C@H](CO)NC(=O)[C@H](CC(C)C)NC(=O)[C@H](CC(=O)O)NC(=O)[C@H](CO)NC(=O)[C@@H](NC(=O)[C@H](Cc1ccccc1)NC(=O)[C@@H](NC(=O)CNC(=O)[C@H](Cc1c[nH]cn1)NC(=O)[C@@H](CO)NC(=O)[C@@H](N)Cc1c[nH]cn1)[C@@H](C)O)[C@@H](C)O)C(=O)N[C@@H](CC(=O)O)C(=O)N[C@@H](CCC(=O)O)C(=O)N[C@@H](CCC(=O)O)C(=O)N[C@@H](C)C(=O)N[C@H](C(=O)N[C@@H](CCCNC(=N)N)C(=O)N[C@@H](CC(C)C)C(=O)N[C@@H](Cc1ccccc1)C(=O)N[C@H](C(=O)N[C@@H](CCC(=O)O)C(=O)N[C@@H](Cc1c[nH]c2ccccc12)C(=O)N[C@@H](CC(C)C)C(=O)N[C@@H](CCCCN)C(=O)N[C@@H](C)C(=O)NCC(=O)NCC(=O)N1CCC[C@H]1C(=O)N[C@@H](CO)C(=O)N[C@@H](CO)C(=O)NCC(=O)N[C@@H](C)C(=O)N1CCC[C@H]1C(=O)N1CCC[C@H]1C(=O)N1CCC[C@H]1C(=O)N[C@@H](CO)C(N)=O)[C@@H](C)CC)C(C)C)C(=O)O
As to B4, in the assay with human GLP-1 receptor, the “EC50 hGLP-1R (cAMP formation)” value was 0.0044 nM. For the same molecule, the “EC50 hGIP-R (cAMP formation)” value with human GIP receptor came out at 0.555 nM. Further, in the assay with human glucagon receptor, the “EC50 hGlucagon-R (cAMP formation)” value amounted to 0.064 nM.

B5: SEQ ID NO: 21 (peptide)
peptide: H-H[dS]HGTFTSDLSKQK([γGlu-γGlu-Palmitoyl])DEEAVRLFIEWLKAGGPSSGAPPPS-NH2
SMILES: CCCCCCCCCCCCCCCC(=O)N[C@@H](CCC(=O)N[C@@H](CCC(=O)NCCCC[C@H](NC(=O)[C@H](CCC(N)=O)NC(=O)[C@H](CCCCN)NC(=O)[C@H](CO)NC(=O)[C@H](CC(C)C)NC(=O)[C@H](CC(=O)O)NC(=O)[C@H](CO)NC(=O)[C@@H](NC(=O)[C@H](Cc1ccccc1)NC(=O)[C@@H](NC(=O)CNC(=O)[C@H](Cc1c[nH]cn1)NC(=O)[C@@H](CO)NC(=O)[C@@H](N)Cc1c[nH]cn1)[C@@H](C)O)[C@@H](C)O)C(=O)N[C@@H](CC(=O)O)C(=O)N[C@@H](CCC(=O)O)C(=O)N[C@@H](CCC(=O)O)C(=O)N[C@@H](C)C(=O)N[C@H](C(=O)N[C@@H](CCCNC(=N)N)C(=O)N[C@@H](CC(C)C)C(=O)N[C@@H](Cc1ccccc1)C(=O)N[C@H](C(=O)N[C@@H](CCC(=O)O)C(=O)N[C@@H](Cc1c[nH]c2ccccc12)C(=O)N[C@@H](CC(C)C)C(=O)N[C@@H](CCCCN)C(=O)N[C@@H](C)C(=O)NCC(=O)NCC(=O)N1CCC[C@H]1C(=O)N[C@@H](CO)C(=O)N[C@@H](CO)C(=O)NCC(=O)N[C@@H](C)C(=O)N1CCC[C@H]1C(=O)N1CCC[C@H]1C(=O)N1CCC[C@H]1C(=O)N[C@@H](CO)C(N)=O)[C@@H](C)CC)C(C)C)C(=O)O)C(=O)O
Take B5: the “EC50 hGLP-1R (cAMP formation)” value with human GLP-1 receptor is 0.0008 nM. Further, the “EC50 hGIP-R (cAMP formation)” value with human GIP receptor was 0.0994 nM. Also, in the assay with human glucagon receptor, the “EC50 hGlucagon-R (cAMP formation)” value came out at 0.0859 nM.

B6: SEQ ID NO: 24 (peptide)
peptide: H-H[Aib]QGTFTSDLSKQK([γGlu-γGlu-Palmitoyl])EEEAVRLFIEWLKAGGPSSGAPPPS-NH2
SMILES: CCCCCCCCCCCCCCCC(=O)N[C@@H](CCC(=O)N[C@@H](CCC(=O)NCCCC[C@H](NC(=O)[C@H](CCC(N)=O)NC(=O)[C@H](CCCCN)NC(=O)[C@H](CO)NC(=O)[C@H](CC(C)C)NC(=O)[C@H](CC(=O)O)NC(=O)[C@H](CO)NC(=O)[C@@H](NC(=O)[C@H](Cc1ccccc1)NC(=O)[C@@H](NC(=O)CNC(=O)[C@H](CCC(N)=O)NC(=O)C(C)(C)NC(=O)[C@@H](N)Cc1c[nH]cn1)[C@@H](C)O)[C@@H](C)O)C(=O)N[C@@H](CCC(=O)O)C(=O)N[C@@H](CCC(=O)O)C(=O)N[C@@H](CCC(=O)O)C(=O)N[C@@H](C)C(=O)N[C@H](C(=O)N[C@@H](CCCNC(=N)N)C(=O)N[C@@H](CC(C)C)C(=O)N[C@@H](Cc1ccccc1)C(=O)N[C@H](C(=O)N[C@@H](CCC(=O)O)C(=O)N[C@@H](Cc1c[nH]c2ccccc12)C(=O)N[C@@H](CC(C)C)C(=O)N[C@@H](CCCCN)C(=O)N[C@@H](C)C(=O)NCC(=O)NCC(=O)N1CCC[C@H]1C(=O)N[C@@H](CO)C(=O)N[C@@H](CO)C(=O)NCC(=O)N[C@@H](C)C(=O)N1CCC[C@H]1C(=O)N1CCC[C@H]1C(=O)N1CCC[C@H]1C(=O)N[C@@H](CO)C(N)=O)[C@@H](C)CC)C(C)C)C(=O)O)C(=O)O
For B6, the “EC50 hGIP-R (cAMP formation)” value in the assay with human GIP receptor was found to be 0.0199 nM. Besides, the “EC50 hGlucagon-R (cAMP formation)” value with human glucagon receptor worked out at 0.261 nM.

B7: SEQ ID NO: 6 (peptide)
peptide: H[Aib]QGTFTSDLSKQK([γGlu-Stearoyl])EEEAVRLFIEWLKAGGPSSGAPPPS-NH2
In the case of B7, the “EC50 hGLP-1R (cAMP formation)” value in the assay with human GLP-1 receptor stood at 0.0094 nM. The “EC50 hGIP-R (cAMP formation)” value with human GIP receptor came to 0.0607 nM. Further, the “EC50 hGlucagon-R (cAMP formation)” value with human glucagon receptor was determined as 0.309 nM.

B8: SEQ ID NO: 29 (peptide)
peptide: H-H[Aib]HGTFTSDLSKQK([AEEA-AEEA-AEEA-Stearoyl])EEEAVRLFIEWLKAGGPSSGAPPPS-NH2
Turning to B8, the “EC50 hGLP-1R (cAMP formation)” value with human GLP-1 receptor turned out to be 0.0047 nM. Besides, the “EC50 hGIP-R (cAMP formation)” value in the assay with human GIP receptor is 0.0476 nM. In the assay with human glucagon receptor, the “EC50 hGlucagon-R (cAMP formation)” value came out at 0.0179 nM.

B9: SEQ ID NO: 23 (peptide)
peptide: H-H[dS]QGTFTSDLSKQK([γGlu-γGlu-Palmitoyl])DEEAVRLFIEWLKAGGPSSGAPPPS-NH2
SMILES: CCCCCCCCCCCCCCCC(=O)N[C@@H](CCC(=O)N[C@@H](CCC(=O)NCCCC[C@H](NC(=O)[C@H](CCC(N)=O)NC(=O)[C@H](CCCCN)NC(=O)[C@H](CO)NC(=O)[C@H](CC(C)C)NC(=O)[C@H](CC(=O)O)NC(=O)[C@H](CO)NC(=O)[C@@H](NC(=O)[C@H](Cc1ccccc1)NC(=O)[C@@H](NC(=O)CNC(=O)[C@H](CCC(N)=O)NC(=O)[C@@H](CO)NC(=O)[C@@H](N)Cc1c[nH]cn1)[C@@H](C)O)[C@@H](C)O)C(=O)N[C@@H](CC(=O)O)C(=O)N[C@@H](CCC(=O)O)C(=O)N[C@@H](CCC(=O)O)C(=O)N[C@@H](C)C(=O)N[C@H](C(=O)N[C@@H](CCCNC(=N)N)C(=O)N[C@@H](CC(C)C)C(=O)N[C@@H](Cc1ccccc1)C(=O)N[C@H](C(=O)N[C@@H](CCC(=O)O)C(=O)N[C@@H](Cc1c[nH]c2ccccc12)C(=O)N[C@@H](CC(C)C)C(=O)N[C@@H](CCCCN)C(=O)N[C@@H](C)C(=O)NCC(=O)NCC(=O)N1CCC[C@H]1C(=O)N[C@@H](CO)C(=O)N[C@@H](CO)C(=O)NCC(=O)N[C@@H](C)C(=O)N1CCC[C@H]1C(=O)N1CCC[C@H]1C(=O)N1CCC[C@H]1C(=O)N[C@@H](CO)C(N)=O)[C@@H](C)CC)C(C)C)C(=O)O)C(=O)O
Consider B9, for which the “EC50 hGLP-1R (cAMP formation)” value with human GLP-1 receptor was determined as 0.0012 nM. The “EC50 hGIP-R (cAMP formation)” value in the assay with human GIP receptor was 0.35 nM. The “EC50 hGlucagon-R (cAMP formation)” value in the assay with human glucagon receptor came out at 0.124 nM.

B10: SEQ ID NO: 28 (peptide)
peptide: H-H[Aib]HGTFTSDLSKQK([AEEA-AEEA-γGlu-Stearoyl])EEEAVRLFIEWLKAGGPSSGAPPPS-NH2
Regarding B10, in the assay with human GLP-1 receptor, the “EC50 hGLP-1R (cAMP formation)” value stood at 0.0038 nM. Further, the “EC50 hGIP-R (cAMP formation)” value with human GIP receptor came to 0.017 nM. Besides, the “EC50 hGlucagon-R (cAMP formation)” value with human glucagon receptor was 0.0171 nM.

B11: SEQ ID NO: 8 (peptide)
peptide: HXHGTFTSDLSKQKDEEAVRLFIEWLKAGGPSSGAPPPS
modifications: Aib at position 2; Lys 14 side-chain NH2 acylated with γE-x70 = (S)-4-Carboxy-4-octadecanoylamino-butyryl-; C-terminal amide (NH2)
B11: the “EC50 hGIP-R (cAMP formation)” value with human GIP receptor was 0.0258 nM. The “EC50 hGlucagon-R (cAMP formation)” value in the assay with human glucagon receptor was determined as 0.0245 nM.
